Data published in US20260242478A1 (published 2026).
Where no end group is shown, it is not given here.

What was measured:
[1] = target: T1, PSMA Fab (biotinylated (site not given)); test: phage ELISA: clonal phage supernatant on biotinylated PSMA Fab captured on neutravidin plate, blocking buffer alone; anti-M13 HRP detection;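 note: crude clonal phage supernatants added to wells preincubated with blocking buffer, incubated briefly, bound phage detected with a horseradish-conjugated anti-M13 antibody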
T1 construct: Biotinylated PSMA Fab captured on neutravidin plates in the phage ELISA; also called Anti-PSMA Fab; 006 PSMA Fab

[2] = target: T1, PSMA Fab; test: phage ELISA on captured biotinylated PSMA Fab, wells pre-incubated with PSMA antigen (competitor: PSMA); anti-M13 HRP detection
Description: (§1) Clonal phage were harvested as crude supernatants and screened via standard ELISAs. […] Prior to the addition of clonal phage. wells were incubated with blocking buffer and PSMA antigen or blocking buffer alone. Without washing or aspirating, clonal phage supernatants were then added to the wells and incubated for a short time. Wells were then washed followed by detection of bound phage using a horse radish conjugated anti-M13 antibody.

[3] = target: T2, PSMA Fab; test: clonal phage ELISA on biotinylated PSMA Fab captured on neutravidin plates, anti-M13-HRP detection; blocking buffer alone
T2 construct: Biotinylated and captured on neutravidin plates in the phage ELISA; also called Anti-PSMA Fab; 006 PSMA Fab
Description: as §1

[4] = target: T3, PSMA Fab; test: phage binding ELISA; biotinylated PSMA Fab on neutravidin plate, clonal phage supernatant, anti-M13 HRP detection; column read as anti-PSMA Fab pre-incubated with PSMA antigen as competitor
T3 construct: also called Anti-PSMA Fab; 006 PSMA Fab
Description: as §1

[5] = target: T3, PSMA Fab; test: phage binding ELISA; biotinylated PSMA Fab on neutravidin plate, clonal phage supernatant, anti-M13 HRP detection; column read as anti-PSMA Fab without PSMA antigen
Description: as §1

B1: Phage-2481 (peptide, not shown: large carriers)
peptide: WSNWCIPPWMCAMN
modifications: cysteine pairing not given here; also: displayed on phage as fusion to pIII, pIII and linker sequence not given here
notes: Clonal phage of the Peptide-180 optimisation library, tested as crude supernatant
Phage binding ELISA signal, Anti-PSMA Fab [1]: 1.23 | Phage binding ELISA signal, Anti-PSMA Fab in presence of PSMA [2]: 0.0771

B2: Phage-2538 (peptide)
peptide: EPKWCVPPWMCAYD
modifications: cysteine pairing not given here; also: fused to phage pIII, linker and fusion site not given here
notes: Clonal phage of the Peptide-180 library, tested as crude supernatant; not shown: pIII coat protein of the bacteriophage to which the peptide is fused
Phage binding ELISA signal, Anti-PSMA Fab [3]: 1.16

B3: Phage-2542 (peptide)
peptide: DLKWCFPDWMCQVG
modifications: cysteine pairing not given here; also: fused to phage pIII, linker and fusion site not given here
notes: as for B2
Phage binding ELISA signal, Anti-PSMA Fab [3]: 1.15

B4: Phage-2537 (peptide)
peptide: EMKWCIPQWMCADS
modifications: cysteine pairing not given here; also: fused to phage pIII, linker and fusion site not given here
notes: as for B2
Phage binding ELISA signal, Anti-PSMA Fab [3]: 1.16

B5: Phage-2480 (peptide, not shown: large carriers)
peptide: PFKWCTPAWMCEVH
modifications: cysteine pairing not given here; also: displayed on phage as fusion to pIII, pIII and linker sequence not given here
notes: as for B1
Phage binding ELISA signal, Anti-PSMA Fab [1]: 1.23 | Phage binding ELISA signal, Anti-PSMA Fab in presence of PSMA [2]: 0.0594

B6: Phage-2528 (peptide)
peptide: YEKWCTPAWMCDFV
modifications: cysteine pairing not given here; also: fused to phage pIII, linker and fusion site not given here
notes: as for B2
Phage binding ELISA signal, Anti-PSMA Fab [3]: 1.17

B7: Phage-2534 (peptide)
peptide: VPKWCIPVWMCEVM
modifications: cysteine pairing not given here; also: fused to phage pIII, linker and fusion site not given here
notes: as for B2
Phage binding ELISA signal, Anti-PSMA Fab [3]: 1.16

MPRWCTPAWMCEAI [Phage-2590]
phage binding ELISA signal [4]: 0.063 | phage binding ELISA signal [5]: 1.05

B8: Phage-2532 (peptide)
peptide: EHRWCIPVWMCEKS
modifications: cysteine pairing not given here; also: fused to phage pIII, linker and fusion site not given here
notes: as for B2
Phage binding ELISA signal, Anti-PSMA Fab [3]: 1.16

B9: Phage-2473 (peptide, not shown: large carriers)
peptide: PEHWCIPPWMCVVH
modifications: cysteine pairing not given here; also: displayed on phage as fusion to pIII, pIII and linker sequence not given here
notes: as for B1
Phage binding ELISA signal, Anti-PSMA Fab [1]: 1.24 | Phage binding ELISA signal, Anti-PSMA Fab in presence of PSMA [2]: 0.513

B10: Phage-2541 (peptide)
peptide: PTKWCIPEWMCVES
modifications: cysteine pairing not given here; also: fused to phage pIII, linker and fusion site not given here
notes: as for B2
Phage binding ELISA signal, Anti-PSMA Fab [3]: 1.15

B11: Phage-2476 (peptide, not shown: large carriers)
peptide: YHNWCVPQWMCVGL
modifications: cysteine pairing not given here; also: displayed on phage as fusion to pIII, pIII and linker sequence not given here
notes: as for B1
Phage binding ELISA signal, Anti-PSMA Fab [1]: 1.23 | Phage binding ELISA signal, Anti-PSMA Fab in presence of PSMA [2]: 0.127

B12: Phage-2477 (peptide, not shown: large carriers)
peptide: VEKWCIPQWMCSMD
modifications: cysteine pairing not given here; also: displayed on phage as fusion to pIII, pIII and linker sequence not given here
notes: as for B1
Phage binding ELISA signal, Anti-PSMA Fab [1]: 1.23 | Phage binding ELISA signal, Anti-PSMA Fab in presence of PSMA [2]: 0.0715

B13: Phage-2540 (peptide)
peptide: EMKWCTPEWMCIGL
modifications: cysteine pairing not given here; also: fused to phage pIII, linker and fusion site not given here
notes: as for B2
Phage binding ELISA signal, Anti-PSMA Fab [3]: 1.15

B14: Phage-2531 (peptide)
peptide: YEKWCIPRWMCEAN
modifications: cysteine pairing not given here; also: fused to phage pIII, linker and fusion site not given here
notes: as for B2
Phage binding ELISA signal, Anti-PSMA Fab [3]: 1.16

B15: Phage-2533 (peptide)
peptide: PVPLCRPPWMCQSV
modifications: cysteine pairing not given here; also: fused to phage pIII, linker and fusion site not given here
notes: as for B2
Phage binding ELISA signal, Anti-PSMA Fab [3]: 1.16

B16: Phage-2530 (peptide)
peptide: VTHWCIPEWMCVVE
modifications: cysteine pairing not given here; also: fused to phage pIII, linker and fusion site not given here
notes: as for B2
Phage binding ELISA signal, Anti-PSMA Fab [3]: 1.17

B17: Phage-2529 (peptide)
peptide: IVKWCTPHWMCSGW
modifications: cysteine pairing not given here; also: fused to phage pIII, linker and fusion site not given here
notes: as for B2
Phage binding ELISA signal, Anti-PSMA Fab [3]: 1.17

B18: Phage-2536 (peptide)
peptide: VSPKCIPPWMCSYV
modifications: cysteine pairing not given here; also: fused to phage pIII, linker and fusion site not given here
notes: as for B2
Phage binding ELISA signal, Anti-PSMA Fab [3]: 1.16

B19: Phage-2527 (peptide)
peptide: LGHWCTPPWMCTES
modifications: cysteine pairing not given here; also: fused to phage pIII, linker and fusion site not given here
notes: as for B2
Phage binding ELISA signal, Anti-PSMA Fab [3]: 1.17

MIGWCTPSWMCSGF [Phage-2588]
phage binding ELISA signal [4]: 0.0716 | phage binding ELISA signal [5]: 1.06

B20: Phage-2475 (peptide, not shown: large carriers)
peptide: EHKWCTPLWMCEGL
modifications: cysteine pairing not given here; also: fused to phage pIII (clonal phage display)
notes: as for B1
Phage binding ELISA signal, Anti-PSMA Fab [1]: 1.23 | Phage binding ELISA signal, Anti-PSMA Fab in presence of PSMA [2]: 0.09

VLNWCTPPWMCLGI [Phage-2589]
phage binding ELISA signal [4]: 0.107 | phage binding ELISA signal [5]: 1.06

B21: Phage-2479 (peptide, not shown: large carriers)
peptide: GFPMCKPLWMCENL
modifications: cysteine pairing not given here; also: displayed on phage as fusion to pIII, pIII and linker sequence not given here
notes: as for B1
Phage binding ELISA signal, Anti-PSMA Fab [1]: 1.23 | Phage binding ELISA signal, Anti-PSMA Fab in presence of PSMA [2]: 0.0667

B22: Phage-2535 (peptide)
peptide: DWKWCTPAWMCSTE
modifications: cysteine pairing not given here; also: fused to phage pIII, linker and fusion site not given here
notes: as for B2
Phage binding ELISA signal, Anti-PSMA Fab [3]: 1.16

B23: Phage-2539 (peptide)
peptide: LMNWCIPSWMCDVE
modifications: cysteine pairing not given here; also: fused to phage pIII, linker and fusion site not given here
notes: as for B2
Phage binding ELISA signal, Anti-PSMA Fab [3]: 1.15

B24: Phage-2474 (peptide, not shown: large carriers)
peptide: DFHMCTPRWMCEGM
modifications: cysteine pairing not given here; also: displayed on phage as fusion to pIII, pIII and linker sequence not given here
notes: as for B1
Phage binding ELISA signal, Anti-PSMA Fab [1]: 1.24 | Phage binding ELISA signal, Anti-PSMA Fab in presence of PSMA [2]: 0.0622

B25: Phage-2472 (peptide, not shown: large carriers)
peptide: FDKWCIPPWMCVGP
modifications: cysteine pairing not given here; also: displayed on phage as fusion to pIII, pIII and linker sequence not given here
notes: as for B1
Phage binding ELISA signal, Anti-PSMA Fab [1]: 1.24 | Phage binding ELISA signal, Anti-PSMA Fab in presence of PSMA [2]: 0.0689

B26: Phage-2471 (peptide, not shown: large carriers)
peptide: MEKWCIPDWMCLGN
modifications: cysteine pairing not given here; also: displayed as fusion to phage pIII
notes: as for B1
Phage binding ELISA signal, Anti-PSMA Fab [1]: 1.24 | Phage binding ELISA signal, Anti-PSMA Fab in presence of PSMA [2]: 0.0809

B27: Phage-2478 (peptide, not shown: large carriers)
peptide: EMIRCIPDWMCMSY
modifications: cysteine pairing not given here; also: displayed on phage as fusion to pIII, pIII and linker sequence not given here
notes: as for B1
Phage binding ELISA signal, Anti-PSMA Fab [1]: 1.23 | Phage binding ELISA signal, Anti-PSMA Fab in presence of PSMA [2]: 0.0624
